Target: T1, WAVE1 (1-230) (UniProt Q92558 1-230)
T1 construct: WAVE1 residues 1-230; also called WAVE1 N-terminus; source: E.coli, purified
T1 sequence (looked up): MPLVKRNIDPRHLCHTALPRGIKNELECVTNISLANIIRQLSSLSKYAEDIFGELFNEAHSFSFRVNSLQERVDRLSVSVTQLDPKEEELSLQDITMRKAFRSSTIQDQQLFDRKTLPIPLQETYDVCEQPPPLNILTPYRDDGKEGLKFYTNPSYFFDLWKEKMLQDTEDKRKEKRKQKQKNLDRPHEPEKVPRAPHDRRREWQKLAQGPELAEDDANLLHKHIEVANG
Assay: SEC; Recombinant subunits expressed individually; CYFIP1-NCKAP1 dimer and BRK1-ABI1-NHSL1 (or WAVE1) trimer reconstituted; pentamers purified on SOURCE 15Q and Superdex 200 (24 ml column)
Conditions: both partners purified

binding result: binds
B1: BRK1 (recombinant) (natural protein, UniProt Q8WUW1 1-75, looked up)
chain: MAGQEDPVQREIHQDWANREYIEIITSSIKKIADFLNSFDMSCRSRLATLNEKLTALERRIEYIEARVTKGETLT
notes: BRK1; source: E.coli, purified
